Results: paper PMC4800440 (Nature Communications, 2016)
Where “and” joins values, the source holds several entries; their conditions need not be identical. Identical values can stand only once.

B2: human oestrogen receptor beta ligand-binding domain ERβ-EF (255–530) (domain or fragment, UniProt Q92731 255-530, looked up)
chain: VRELLLDALSPEQLVLTLLEAEPPHVLISRPSAPFTEASMMMSLTKLADKELVHMISWAKKIPGFVELSLFDQVRLLESCWMEVLMMGLMWRSIDHPGKLIFAPDLVLDRDEGKCVEGILEIFDMLLATTSRFRELKLQHKEYLCVKAMILLNSSMYPLVTATQDADSSRKLAHLLNAVTDALVWVIAKSGISSQQQSMRLANLLMLLSHVRHASNKGMEHLLNMKCKNVVPVYDLLLEMLNAHVLRGCKSSITGSECSPAEDSKSKEGSQNPQSQ
notes: Estradiol (E2) present throughout; Tag removed with TEV protease; the thioredoxin tag was separated from the complex by gel filtration; also called ERβ LBD; Trx-His-tev-ERβ-EF (255–530); source: E. coli BL21(DE3), with 10 μM estradiol; not shown: thioredoxin, N-terminal, cleaved; His, N-terminal, cleaved
B3: TIF2 (623–772), His-tb-TIF2, expressed alone for the complex with ERβ-EF (domain or fragment, human, UniProt Q15596 623-772, looked up)
chain: SERADGQSRLHDSKGQTKLLQLLTTKSDQMEPSPLASSLSDTNKDSTGSLPGSGSTHGTSLKEKHKILHRLLQDSSSPVDLAKLTAEATGKDLSQESSSTAPGSEVTIKQEPVSPKKKENALLRYLLDKDDTKDIGLPEITPKLERLDSK
notes: also called transcriptional intermediary factor 2

Key:
[1] = target: T1, TIF2 (623–772), (His)6-thrombin-TIF2, co-expressed with GRtm-E (human, UniProt Q15596 623-772); conditions: both partners purified
T1 construct: Same limits as m2; here the tags were removed by thrombin cleavage; not shown: His6, N-terminal, cleaved
T1 sequence (looked up): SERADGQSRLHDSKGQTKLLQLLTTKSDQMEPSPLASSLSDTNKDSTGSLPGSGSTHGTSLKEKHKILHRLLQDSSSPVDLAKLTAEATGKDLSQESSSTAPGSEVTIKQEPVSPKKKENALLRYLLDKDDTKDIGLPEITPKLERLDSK

[2] = target: B3; test: native MS; conditions: both partners purified
[3] = target: B2; test: SEC; conditions: partners not purified

B1: GR_LBD triple mutant C638A, W557T and W712S (residue 524–777) (domain or fragment, human, UniProt P04150 524-777, looked up)
chain: TLPQLTPTLVSLLEVIEPEVLYAGYDSSVPDSTTRIMTTLNMLGGRQVIAAVKWAKAIPGFRNLHLDDQMTLLQYSWMFLMAFALGWRSYRQSSANLLCFAPDLIINEQRMTLPAMYDQCKHMLYVSSELHRLQVSYEEYLCMKTLLLLSSVPKDGLKSQELFDEIRMTYIKELGKAIVKREGNSSQNSQRFYQLTKLLDSMHEVVENLLNYCFQTFLDKTMSIEFPEMLAEIITNQIPKYSNGNIKKLLFHQK
notes: Dexamethasone present throughout; Tags removed with thrombin; The bioinformatics methods print the cysteine as Cys 636, the production methods as C638A; also called GRtm-E; GRtm LBD; not shown: NusA, N-terminal, cleaved; His6, N-terminal, cleaved
Question: B1 was tested. Which “stoichiometry N” value [1] did it give?
Answer: Its value is 2 GR per TIF2 and 1 GRtm-E per TIF2.

Question: For B2, which “stoichiometry N” value [2] is on record?
Answer: The value was 2 ERβ-EF per TIF2.

Question: Does B3 bind [3]?
Answer: Result: binds
